The nanobody polyreactivity screen of Harvey et al. (2022)

Experiment: yeast display, Sf9 membrane polyspecificity reagent, FACS + sequencing; frameworks hold sequencing errors
How it was run: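 In a synthetic yeast display library (Saccharomyces cerevisiae BJ5465), nanobody expression was induced with galactose for 36–48 hours. FACS gates were set low and high (top ~1%) using anti-HA fluorescence for expression and streptavidin fluorescence for binding of the Sf9 membrane reagent. Each polyreactivity label is drawn from the gate of origin.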

QVQIVESGGGLVQAGVSLRLSCAASGSIYYEYTMGWYRQAPGKERELVAVITSCGTTNYADSVKGRFTISRDNAKNTVFLQMNSLKPEDTAVYYCAAKRRTGGNGYWGQGTQVTVSS
polyreactivity (PSR sort gate): high polyreactivity

QVQLVESGGGLVQAGGSLRLSCAASGLIFAYYAMGWYRQAPGKERELVAAISWTGGSTYYADSVKGRFTISRDNAKNTVYLQMTSLKPEDTAVYYCNTVGKPGFYSWGQGTQVTVSS
polyreactivity (PSR sort gate): high polyreactivity

QVQLVESGGGLVQAGGSLRLSCAASGSIFTTYTMGWYRQAPGKERELVAAITAGGGTTYYADSVKGRFTISRDNAKNTVYLQMNSLKPEDTAVYYCAAANSFYYIATGEYDYWGQGTQVTVSS
polyreactivity (PSR sort gate): high polyreactivity

QVQLVESGGGLVQAGGSLRLSCAASGSIFRWYTMGWYRQAPGKERELVAAISRSGGSTYYADSVKGRFTISRDNAKNTVYLQMNRLKPEDTAVYYCAADKFRHPYWDRYIYFHYDYWGQGTQVTVSS
polyreactivity (PSR sort gate): low polyreactivity

QVQLVESGGGLVQAGGSLRLSCAASGSIFGLYVMGWYRQAPGKERELVAAITGRGGSTYYADSVKGRFTISRDNAKNTVYLQMNSLKPEDTAVYYCAALRYTFAGRFDYWGQGTQVTVSS
polyreactivity (PSR sort gate): high polyreactivity

QVQLVESGGGLVQAGGSLRLSCAASGLTFYDYAMGWYRQAPGKERELVADIDFNGGSTSYADSVKGRFTISRDNAKNTVYLQMNSLKPEDSAVYYCNSRDRGDVVTGLDYWGQGTQVTVSS
polyreactivity (PSR sort gate): low polyreactivity

QVKLVESGGGLVQAGGSLRLSCAASGFTFEEYAMGCYRQSPGKERELVAAISASGGRTYYADSVKRRFTISRDNAKNTVYLQMNSLKPEDTAVYYCAAGYRGRRIMDYWGQGTQVTVSS
polyreactivity (PSR sort gate): high polyreactivity

QVQLVESGGFLVQAGGSLRLTCAASGSIIENNAMGWSRQAPRKERELVDAISSDDTTNYADSVKGRFTISRDNAKNTVYLLMNRLLPVDTAVYYCNVDSGPEDKTVTYDYWGQGTQVTVSS
polyreactivity (PSR sort gate): low polyreactivity

QVQLVESGGGLVQAGGSLRLSCAASGFTFRWYAMGWYRQAPGKERELVARIRGSGGNTYYADSVKGRFTISRDNAKNTVYLQMNSLKPEDTAVYYCAAMQSPTRSFIYRFDYWGQGTQVTVSS
polyreactivity (PSR sort gate): high polyreactivity

QVQLQESGGGLVQASGSLRLSCAASGNIFPDYFMGWYRLATGKEREFVANITGGSTTNYADSVKGRFTISRDNANNTVYLQIYSLKPEDTAVYYCAVYFGTVQHAYWGQGTQVTVSS
polyreactivity (PSR sort gate): high polyreactivity

QVQLVESGGGLVQAGGSLRLSCAASGSTFTINVMGSYRQAPGKERELVAAINGGGRTNYADSVKGRFTISRDNAKNTVYLQMNSLKPEDTAVYYCAADGLSNVRQMDYWGQGTQVTVSS
polyreactivity (PSR sort gate): low polyreactivity

QVQLVESGGGLVQAGGSLRLSCAASGLTFKYYAMGWYRQAPGKERELVAIISFGGGSTYYADSVKGRFTISRDNAKNTVYLQMNSLKPEDTAVYYCNARLLFKYGYWGQGTQVTVSS
polyreactivity (PSR sort gate): high polyreactivity

QDQLVESVVGLVQAGGSLRLSCAASGRIFEDYAMGWYRQAPGKERELVARICSGDSTNYADSVKGRFTISRDNAKNTVYLQMNSLKPEDTAVYYCAAEGGVQEFDFCGQGTQVTVSS
polyreactivity (PSR sort gate): low polyreactivity

QVQLVESGGGLVQAGGSLRLSCAASGNIFHFYAIARYRQAPRKERELVATISWRGDGTYYADSVKGRFTISRDKAKNTVYFQLISLKPEETAVDYCAARGVWPEYDYWGQGTQVTVSS
polyreactivity (PSR sort gate): low polyreactivity

QVQLVESGGGLVQAGGSLRLSCAASGFTFRRYDMGWYRQAPGKERELVAAITASGGNTYYADSVKGRFTISRDNAKNTVYLQMNSLKPEDTAVYYCAARQYRYKYDYWGQGTQVTVSS
polyreactivity (PSR sort gate): high polyreactivity

QVQLVESGGGLVQAGGSLRLICAASGSIFNQNSMGWYRQAPGKERELVAVISSGGRTSYADSVKGRFTISRDNAKNTVFLLMNSLKPEDTAVYYCNREGWHYGPYGYWGQGTQVTVSS
polyreactivity (PSR sort gate): low polyreactivity

QVQLVESRGGLVQAGGSLRLSSAASGSIIWYYAMGWYRQAPGKERELVAAITVSGGSTYYADSVKGRFTISRDNAKNTVYLQMNSLKPEDSAVYYCAARYISLSGDEYDYWGQGTQVTVSA
polyreactivity (PSR sort gate): low polyreactivity

QVQLVESGGGLVQAGGSLRLSCAASGSTFYYYAMGWYRQAPGKEREFVAAISWRGGSTYYADSVKGRFTISRDNAKNTVYLQMNSLKPEDTAVYYCAATTLYRGVYYRIFGWGYERGHWGQGTQVTVSS
polyreactivity (PSR sort gate): low polyreactivity

QVQRVESGGGLVQAGGSLRLSCAASGLTFNNNAMGCYRQAPGTARELVAAISRTAVRTYYADSVKGRFTISRDNAKNTVYLQMNSLKPEDTAVYYCNGVSYYGGYPVTYDYWGQGTQVTVSS
polyreactivity (PSR sort gate): high polyreactivity

QVHLVDSGGGLVQAGGSLRLSCAASGRIYYVYAMGGYRQAPGQERELVAGITSTGGSTYYADSVKGRFTISRDNAKSTVYLQINRLNPVDTAVYYGATDYGYYDYWGQGTQVTVSS
polyreactivity (PSR sort gate): low polyreactivity

QVQLVESGGGLVQAGGSLRLSCAASGSIFSYYAMGWNRQAHGKERELVASITRGGSTYYADSVKGRFTISRDNAKNTVYLQMNSLKPEDSAVYYCAAAARYYSRYDFPNNYWGQVTQVTVSS
polyreactivity (PSR sort gate): low polyreactivity

QVQLVESGGGLVQAGGSLRLSCAASGSIFVHYAMGWYRQAPGKERELVAAITSSGGRTYYADSVKGRFTISRDNAKNTVYLQMNSLKPEDTAVYYCNAAKYLYRHGFLSAGDMYYWGQGTQVTVSS
polyreactivity (PSR sort gate): high polyreactivity

QVQLVESGGGLVQAGGSLRLTCAASGRTFTIYAMGWYRQAPGKERELVAAISSSSGSTYYADSVKGRFPISRDNAKNTVYLQKNSLKPEDTAVYYCAVKLSGQAAQRRYDYWGQGTQVTVSS
polyreactivity (PSR sort gate): high polyreactivity

QVQLVESGRGLVQAGGSLRLICDASGSTFFLYGMGWYRPAPGKERELVAAITWNGGSTYYADSVKGRFTISRDNAKNTVYLQMNSLKPEDTAVYYCAADYYGYFSTPYDYWGQGTQVTVSS
polyreactivity (PSR sort gate): low polyreactivity

QVQLVESGGGLVQAGGSLRLSCAASGSILVHYAMGWYRPAPGKEWELVAAISSVGSTNYADSVKGRFTMTRDNAKNTVYLQMNSLKPEDTAVYYCAARASRWYIAVDYWRQGTQVTVSS
polyreactivity (PSR sort gate): low polyreactivity

QVQLVESGGGLVQAGGSLRLSCAASGGTFAVNAMGWYRQAPGKEREFVAAISSRGSTSYADSVKGRFTISRDNAKNTVYLQMNSLKPEDTAVYYCAKRQGYWFDYWGQGTQVTVSS
polyreactivity (PSR sort gate): high polyreactivity

QDQLVESGAGLVQAGGSLRLSCAASGITFSANAMGWYRQAPGKERELVATITWSGGSTYYADSVKGRFTISRDNAKNTVYLQMNSLKPEDTAVYFCNARSYDEYPYYSYNYWGQGTQVTVSS
polyreactivity (PSR sort gate): low polyreactivity

QVQLQESGGGLVQAGGSLRMSCSASGNIFDADIMGWYRQAPGKERELVASITDGRRTNYADSVKGRYTISRDSEKNTVYLQMNSLKPEDTAVYYCAAIAYPVVPTYFDYDSDYFHWGQGTQVTVSS
polyreactivity (PSR sort gate): high polyreactivity

QVQLVESGGGLVQAGGSLRLSCADSGITFPVNDMGWSRQAHGKEREFVADITSSGGNTYYADSVKGRFTISRDNAKNTVYLKMNSLIPEDTAVYYCNADDGYFYVYQGWYEEMDYWGQGNQVTVSS
polyreactivity (PSR sort gate): high polyreactivity

QFKLVESGGGLVQAGGSLRLSCAASGVIIQGNAMGWYRQAPGNEMELVAAISSSVSTYYADSVKGRFTISRDNAKNTVYLQMTSLKPEDTAVYYCNAGFPLSLWLGDYWGHGTQVTVSS
polyreactivity (PSR sort gate): low polyreactivity

QVQLVESGGGLVQAGGSLRLSCAAFGPIFQYYAMGSYRQAPGKERELVAAITRSGGSTYYADSVKGRFTISRDNAKNTVYLQMNSLKPEDTAVYYCAAYSRYTVREGYDYWGQGTQVTVSS
polyreactivity (PSR sort gate): high polyreactivity

QVQLVESGGGLVQAGGSLRLSCAASGRIFRPYVMGWYRQAPGKERELVAAISYRGSSTYYADSVKGRFTISRDNAKNTVYLQMNSLKPEDTAVYYCAAYPRVYWTKEYDYWGQGTQVTVSS
polyreactivity (PSR sort gate): high polyreactivity

QVQLVESGGGLVQAGGSLRLSCAASVYIFVRNALGWYRQAPGKERELVAAISGSGGSTYYADSVKGRFTISRDNAKNTVSLQMNSLIPEDTAVDYCAADYATVTWRGIAYDYWGQGTQVTVSS
polyreactivity (PSR sort gate): low polyreactivity

QVQLVESVGGLVQAGGSLRLSCAASGRTFGGNAMGWYRQAPGKERELVAVITGSGARTYYADSVKGRFTISRDNAKNTVYLQMNSLKPEDTAVYYCAAAGYSGQYRSYYWGQGTQVTVSS
polyreactivity (PSR sort gate): high polyreactivity

QVQLVESGGGLVQAGGSLRLSCAASGSSFIINAMGWYRKAPGKERELVAAITSGGSTSYADSVKGRFTISRDNAKYTVYLQMNSLNPEDTAVYYCATDHDIGYNFNRYDYWGLGTQVTVSS
polyreactivity (PSR sort gate): low polyreactivity

QVQLVESGGGLVQAGGSLRLSCAASGSIFRTYVMGWYRQAPGKERELVATIDSTSGSTYYADSVKGRFTISRDNAKNTVYLQMNSLKPEDTAVYYCNVLVYYYYVVKSTYRWYDYWGQGTQVTVSS
polyreactivity (PSR sort gate): high polyreactivity

QVQLVDSGGGLVQAGGSLRLSCAASGFIFLTYGMGWYRQAPGKERELVATITSVGSTNYADSVKGRFTISRDNAKNTVYLQMNSLKPEDTAVYYCAAVSTYHVEFDFWAEYGYWGQGTQVTVSS
polyreactivity (PSR sort gate): low polyreactivity

QVQLVESGGGLVQAGGSLRLSCAAYGSTFTDYDMGWYRQAPGKERELVAAITSGGSTNYADSVKGRFTISRDNAKNTVYLQMNSLKPEDTAVYYCAAADADRKYDYWGQGTQVTVSS
polyreactivity (PSR sort gate): low polyreactivity

QVQLVESGGGLVQAGGSLRLSCAASGIIFWYYAMGWYRQAPGKERELVAAISSGGGTNYADSVKGRFTISRDNAKNTVSLQMNSLKPEDTAVYYCNADDNPVWEYDYWGQGTQVTVSS
polyreactivity (PSR sort gate): low polyreactivity

QVQLVESGGGLVQAGGSLRLSCAASGSIFSGNAMGWYRQAPGKVRELVAAISRSGGSTYYADSVKGRFTISRDNAKNTVYLQMNSLKPEDTAVYYCAAYRTHGPPRAIRFDYWGQGTQVTVSS
polyreactivity (PSR sort gate): high polyreactivity

QVQLVESGGGLVQAGGSLRLSSAASGRTFFINAMGWYRQAPGKERDLVATITSGGITNYADSVKGRFTISRDNAKNTDYLQMNSLKPEDTAVYYCAVRWYGKYSGVRYYYWGQGTQVTVSS
polyreactivity (PSR sort gate): high polyreactivity

QVQLQESGGGLVQAGGSLRLSCAASGTIFRFRYMGWHRQAPGKERELVAGINGGTTTYYADSVIGRFTISRDNAKKSVYLQMNSLKPDDTAVYNCAAGASRLTYYDYWGQGTQVTVSS
polyreactivity (PSR sort gate): low polyreactivity

QVQLVESGGGLVQAGGSLRLSCAASGSIFPIYAMGRYRQAPGKEMELVAAINRSGGSTYYADSVKGRFTISRDNAKNSVYLQMNSLIPEDTAVYYCNADYGYHNQLFWGYYGWSSDHWGQGTQVTVSS
polyreactivity (PSR sort gate): low polyreactivity
